We go through 15 molecules from patent publication US11299524B2, “KIF13B-derived peptide and method of inhibiting angiogenesis” (THE BOARD OF TRUSTEES OF THE UNIVERSITY OF ILLINOIS, priority 2016, dated 2022).

Non-standard residues stand in square brackets, D forms with d. Residues, ends and D or L forms follow the SMILES beside them. No end group written: not given here. d2Nal = N[C@H](Cc1ccc2ccccc2c1)C(=O)O; Aib = CC(C)(N)C(=O)O

For one data set, the target named is VEGFR2 (Homo sapiens, UniProt P35968). In words: pull-down binding assay with endogenous VEGFR2 from HUVEC lysates. Details: endogenous in cells; host or cells: HUVEC. The following applies: HUVEC lysate, anti-VEGFR2 western blot. An excerpt:
Truncated mutants of KIF13B were expressed in BL21 (DE3) or Rosetta-gami and purified as previously described (Yamada, et al. (2014) J. Cell Sci. 127:4518-30; Yamada, et al. (2007) Biochemistry 46:10039-45).
Using recombinant proteins, the binding sites on KIF13B mediating the interaction with VEGFR2 were identified. KIF13B has a motor, forkhead-associated, membrane-associated guanylate kinase-binding stalk, 2 domains of unknown function (DUFs) (DUF3694), and a proline-rich and cytoskeleton-associated protein glycine-rich domain. The DUFs were identified from amino acid sequence similarity on the Pfam database. It has been previously shown that both domains of DUF3694 directly bind recombinant VEGFR2 in vitro (Yamada, et al. (2007) Biochemistry 46:10039-45). To define the specific peptide sequence inhibiting VEGFR2 trafficking, further analysis of the second DUF3694 domain (DUF2, residues 1112-1281 of KIF13B) was carried out. This was based on stability of this domain and a sequence distinct from binding sites for other cargoes of KIF13B (Horiguchi, et al. (2006) J. Cell Biol. 174:425-436; Hanada, et al. (2000) J. Biol. Chem. 275:28774-2878). DUF2 was divided into 3 parts, DUF2A (residues […]), DUF2B (residues 1168-1216), and DUF2C (residues 1217-1281) and each part was expressed as a recombinant protein in bacteria. VEGFR2 was abundantly expressed in HUVECs; thus, cell lysate from HUVECs was incubated with these recombinant proteins on beads, and VEGFR2 binding was determined using the anti-VEGFR2 antibody.
To identify the minimum binding site on VEGFR2, DUF2C was further truncated (DUF2C1-9) (FIG. 1). […] Stability of the C5 peptide was attributed to the 4-6 C-terminal residues. Accordingly, replacing these C-terminal residues with another a peptide, one or more post-translational modifications, one or more non-natural amino acid residues, a macromolecule such as PEG, or a combination thereof, is expected to stabilize the KAI peptide.
Initially, peptide interaction with VEGFR2 was confirmed using the pull-down assay.
To further define the KIF13B residues involved in binding to VEGFR2, truncations of the DUF2C5 peptide were tested for binding to VEGFR2 (Table 3) and compared to binding of DUF2C5 and peptides flanking this region (FIG. 1).

The conditions of data set [1]: cited from earlier work.
The subject of data set [2] is HUVECs. Put plainly: VEGF-induced capillary network formation on […] in vitro. Type of data set: cell-based, human. The following applies: truncated mutant expressed by lentivirus in HUVECs. The protocol: (§1) Collagen invasion assay was performed as previously described (Kang, et al. (2011) J. Biol. Chem. 286:42017-26). In vitro capillary network formation on […] (BD Biosciences, San Jose, Calif.) and scratch wound healing assay were performed as previously described (Humtsoe, et al. (2010) Mol. Cell Biol. 30:1593-1606). Fibrin gel sprouting assay was performed as described by Nakatsu & Hughes ((2008) Methods Enzymol. 443:65-82). VEGF (2.2 nmol/L) stimulation was used for all in vitro angiogenesis assays. Transwell migration assay was performed as described by Kaplan, et al. ((2011) Free Radical Res. 45:1124-35) using VEGF (4.4 nmol/L), sphingosine-1-phosphate (S1P) (1 μmol/L), or basic fibroblast growth factor (bFGF) (50 ng/mL) in the presence or absence of kinesin-derived angiogenesis inhibitor (DUF2C5; residues 1238-1260 of KIF13B) at varying concentrations.
(§2) To test the bioactivity of the truncated mutant of KIF13B, DUF2C was expressed by lentivirus vector in HUVECs. […] The collagen invasion system (Kang, et al. (2011) J. Biol. Chem. 286:42017-42026) was used as another angiogenesis assay to test the peptides. After infection with control lentivirus, FLAG-DUF2C, or FLAG-DUF2, HUVECs were seeded on collagen gels. Cell invasion in response to proangiogenic stimuli SIP and VEGF in the gel was monitored for up to 24 hours.
Bioactivities in two-dimensional capillary network formation assay were assessed in HUVECs expressing KIF13B truncated mutants or vector controls. HUVECs were infected with lentiviruses encoding FLAG-C2, -C3, -C5, -C8, -C9, or vector.
Changes in VEGF-induced network formation assay were assessed in […] plugs. […] VEGF-induced EC sprouting was also determined by 3-dimensional culture of HUVECs on beads (Nakatsu & Hughes (2008) Methods Enzymol. 443:65-82).

In data set [3] the test system is HUVECs. Put plainly: collagen invasion assay. Type of data set: cell-based, human. The settings on record: lentiviral expression; S1P and VEGF; up to 24 hours. The procedure: as §1, §2
For data set [4], the system named is vessel formation of mouse ECs. In words: […] plug vessel formation assay in mice with lentivirus. Type of data set: in vivo. The following applies: lentivirus s.c. with MATRIGEL, VEGF, bFGF, heparin; C57BL mice. The protocol: Hematoxylin and eosin staining of […] plug was supplemented with 4.4 nmol/L VEGF, 50 ng/mL of basic fibroblast growth factor, 60 U of heparin, and 0.8×10^8 IFU lentivirus (vector control, DUF2, or DUF2C5, or CT) and injected s.c. in C57BL6 mice. Data are expressed as means±SEM. N=4, 4, 5, and 5 for vector control, DUF2, DUF2C5, and CT, respectively. *P<0.05 (one-way analysis of variance). CT, residues 1528-1826 of KIF13B.
For the […] plug assay used to assess vessel formation of mouse ECs, C57BL6 males (Jackson Laboratory) were used as previously described (Yang & Proweller (2011) J. Biol. Chem. 286:13741-53). […] supplemented with 4.4 nmol/1 VEGF, 50 ng/ml bFGF, 60 U heparin, and 0.8×10^8 IFU of lentivirus was injected subcutaneously into abdomen. Four days after injection, […] was collected.
To address the role of KIF13B in mediating angiogenesis in vivo, the […] plug assay was performed in mice using lentivirus expressing truncated mutants of KIF13B. High titer of lentivirus was injected with […] s.c. into C57BL mice in the presence of VEGF, bFGF, and heparin.

Sequence of VEGFR2 (P35968 20-1356): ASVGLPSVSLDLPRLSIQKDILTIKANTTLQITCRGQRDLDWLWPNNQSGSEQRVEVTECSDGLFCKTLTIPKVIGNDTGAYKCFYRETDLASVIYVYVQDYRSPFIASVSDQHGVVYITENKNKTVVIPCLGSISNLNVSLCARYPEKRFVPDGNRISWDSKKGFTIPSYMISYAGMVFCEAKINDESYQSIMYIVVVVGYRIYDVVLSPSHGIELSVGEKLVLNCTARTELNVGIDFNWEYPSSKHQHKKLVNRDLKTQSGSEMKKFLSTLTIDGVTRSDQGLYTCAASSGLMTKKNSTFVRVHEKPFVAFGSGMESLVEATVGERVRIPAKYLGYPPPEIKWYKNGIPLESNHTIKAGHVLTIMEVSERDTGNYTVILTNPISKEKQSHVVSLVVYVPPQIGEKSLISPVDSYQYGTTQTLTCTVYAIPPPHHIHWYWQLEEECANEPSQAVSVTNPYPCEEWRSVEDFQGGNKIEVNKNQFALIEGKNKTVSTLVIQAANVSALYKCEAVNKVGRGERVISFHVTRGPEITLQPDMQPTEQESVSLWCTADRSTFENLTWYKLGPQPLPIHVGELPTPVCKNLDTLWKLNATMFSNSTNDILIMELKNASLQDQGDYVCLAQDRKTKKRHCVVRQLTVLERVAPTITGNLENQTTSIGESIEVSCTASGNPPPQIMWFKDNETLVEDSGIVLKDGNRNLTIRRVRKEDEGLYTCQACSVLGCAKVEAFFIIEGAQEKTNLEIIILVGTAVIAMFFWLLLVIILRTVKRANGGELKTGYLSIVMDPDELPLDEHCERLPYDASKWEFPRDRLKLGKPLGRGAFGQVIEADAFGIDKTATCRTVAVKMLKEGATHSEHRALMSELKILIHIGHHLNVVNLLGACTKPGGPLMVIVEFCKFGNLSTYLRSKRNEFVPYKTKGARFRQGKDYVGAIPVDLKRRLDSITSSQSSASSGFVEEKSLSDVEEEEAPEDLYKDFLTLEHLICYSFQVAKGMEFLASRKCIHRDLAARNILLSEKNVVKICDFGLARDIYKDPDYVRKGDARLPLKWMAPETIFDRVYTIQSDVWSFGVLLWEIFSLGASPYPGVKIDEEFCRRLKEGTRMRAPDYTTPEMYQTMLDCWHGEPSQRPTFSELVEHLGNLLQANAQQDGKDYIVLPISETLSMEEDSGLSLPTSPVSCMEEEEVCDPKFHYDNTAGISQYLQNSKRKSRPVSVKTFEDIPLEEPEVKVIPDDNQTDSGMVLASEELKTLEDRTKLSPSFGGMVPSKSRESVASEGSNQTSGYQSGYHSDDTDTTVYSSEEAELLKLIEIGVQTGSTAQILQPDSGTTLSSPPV

For the molecule “DUF2A: residues 1111-1167 of KIF13B, recombinant protein (QKLVSKRDKTEDDADREAQLLEMRLTLTEERNAVMVPSAGSGIPGAPAEWTPVPGME; left off: small tags and cut ends)”, the VEGFR2 binding entry with VEGFR2 is on record as “failed to bind”.
As for `CC(C)(N)C(=O)N[C@@H](Cc1c[nH]cn1)C(=O)N[C@H](Cc1ccc2ccccc2c1)C(=O)N[C@H](Cc1ccccc1)C(=O)N[C@@H](CCCCN)C(N)=O` [Ipamorelin] (H-[Aib]H[d2Nal][dF]K-NH2), the terminal half-life entry in data set [1] (in humans) is listed as “about 2 hours”.
peginesatide: the elimination half-life in data set [1] (in healthy volunteers) was 18.9 h.
On to “TPVDERLFLIVRVTVQ (listed as Homo sapiens) [SEQ ID NO:3, Homo sapiens KAI peptide]”, for which the VEGFR2 binding entry in the data set with VEGFR2 was “sufficient for VEGFR2 binding”.
In the case of “TPVDERLFLIVRVTVQLSHPADMQLVLRKR . . . QGF (listed as Homo sapiens) [DUF2C3, KIF13B residues 1241-1281]”, the VEGFR2 binding result in the data set with VEGFR2 is on record as “bind VEGFR2”. Moreover, the “VEGF-induced capillary network formation” value with HUVECs [2] is “significantly reduced”.
Regarding `NC(=O)CC[C@@H]1NC(=O)[C@H](Cc2ccccc2)NC(=O)[C@H](Cc2ccc(O)cc2)NC(=O)[C@@H](N)CSSC[C@@H](C(=O)N2CCC[C@H]2C(=O)N[C@@H](CCCN=C(N)N)C(=O)NCC(N)=O)NC(=O)[C@H](CC(N)=O)NC1=O` [vasopressin], the half-life in data set [1] (in humans) was 0.167 to 0.583 h.
As to “C2: truncated KIF13B domain, residues 1221-1260, recombinant or lentivirus-expressed (FLAG-C2) (VKAEASWDSAVHGCPQLSRGTPVDERLFLIVRVTVQLSHP; not fully specified (N-terminus); also: FLAG tag; UniProt Q9NQT8 1221-1260, looked up, fragment)”, the VEGFR2 binding entry in the data set with VEGFR2 is “bind VEGFR2”. In addition, in the data set with HUVECs [2], the “VEGF-induced capillary network formation” value was “significantly reduced”.
On to “DUF2B: residues 1168-1216 of KIF13B, recombinant protein (THIPVIFLDLNADDFSSQDNLDDPEAGGWDATLTGEEEEEFFELQIVKQ; left off: small tags and cut ends)”, for which, in the data set with VEGFR2, the VEGFR2 binding entry is given as “failed to bind”.
On to “VRVTVQLSHPADMQLVLR (listed as Homo sapiens) [DUF2C8, KIF13B residues 1251-1268]”, for which the VEGFR2 binding result in the data set with VEGFR2 was “weakly bind VEGFR2”; with VEGFR2 (listed as C8) it was “partial or unstable binding”. In the data set on HUVECs [2], the “VEGF-induced capillary network formation” value was “did not significantly reduce”.
Take “SRGTPVDERLFLIVRVT (listed as Homo sapiens) [DUF2C6, KIF13B residues 1238-1254]”: the VEGFR2 binding entry with VEGFR2 is on record as “partial or unstable binding”.
On to “PQLSRGTPVDERLFLIVR (listed as Homo sapiens) [DUF2C9, KIF13B residues 1235-1252]”, for which the VEGFR2 binding entry with VEGFR2 was “weakly bind VEGFR2”; with VEGFR2 (listed as C9) it was “partial or unstable binding”. Further, the “VEGF-induced capillary network formation” value with HUVECs [2] is given as “did not significantly reduce”.
Turning to albiglutide, the half-life in data set [1] (in humans) was 140 to 170 h.

B1: DUF2C: residues 1217-1281 of KIF13B, recombinant protein (protein)
chain: HDGEVKAEASWDSAVHGCPQLSRGTPVDERLFLIVRVTVQLSHPADMQLVLRKRICVNVHGRQGF
modifications: left off: small tags and cut ends
notes: residues 1217-1281 of KIF13B, recombinant protein
With B1, in the data set with VEGFR2, the VEGFR2 binding result was “specifically binds”. Moreover, in the data set with HUVECs [3], the distance of invasion entry is on record as “significantly reduced”, the “invasion of HUVECs into collagen gel” value is recorded as “significantly reduced”, the “number of lumen formed” value is “significantly reduced” and the “thickness of invading sprouts” value was “not different among the groups”. Further, in the data set on HUVECs [2], the “VEGF-induced capillary network formation” value is recorded as “sufficient to reduce”.

B2: DUF2: second DUF3694 domain, residues 1112-1281 of KIF13B (protein, UniProt Q9NQT8 1112-1281, looked up, fragment)
chain: KLVSKRDKTEDDADREAQLLEMRLTLTEERNAVMVPSAGSGIPGAPAEWTPVPGMETHIPVIFLDLNADDFSSQDNLDDPEAGGWDATLTGEEEEEFFELQIVKQHDGEVKAEASWDSAVHGCPQLSRGTPVDERLFLIVRVTVQLSHPADMQLVLRKRICVNVHGRQGF
In the case of B2, in the data set with HUVECs [3], the distance of invasion result was “significantly reduced”, the “invasion of HUVECs into collagen gel” value was “significantly reduced”, the “number of lumen formed” value is reported as “significantly reduced” and the “thickness of invading sprouts” value is given as “not different among the groups”. Moreover, the “number of vessels in MATRIGEL plug” value in data set [4] is “significantly reduced”.

B3: CT: C-terminus region of KIF13B (residues 1528 to 1826), negative control (protein, UniProt Q9NQT8 1528-1826, looked up, fragment)
chain: ICDKPAKVPSPPPVIAVTAVTPAPEAQDGPPSPLSEASSGYFSHSVSTATLSDALGPGLDAAAPPGSMPTAPEAEPEAPISHPPPPTAVPAEEPPGPQQLVSPGRERPDLEAPAPGSPFRVRRVRASELRSFSRMLAGDPGCSPGAEGNAPAPGAGGQALASDSEEADEVPEWLREGEFVTVGAHKTGVVRYVGPADFQEGTWVGVELDLPSGKNDGSIGGKQYFRCNPGYGLLVRPSRVRRATGPVRRRSTGLRLGAPEARRSATLSGSATNLASLTAALAKADRSHKNPENRKSWAS
For B3, in the data set with VEGFR2, the VEGFR2 binding entry is recorded as “does not bind”. The “number of vessels in MATRIGEL plug” value in data set [4] is on record as “no significant effect”. In addition, in the data set on HUVECs [2], the “VEGF-induced capillary network formation” value is recorded as “formed capillary networks”.
